Target: plasma membrane calcium ATPase PMCA4b, P23634
Experiment: cell-based or functional assay

Sequence of plasma membrane calcium ATPase PMCA4b, P23634 (P23634 whole entry): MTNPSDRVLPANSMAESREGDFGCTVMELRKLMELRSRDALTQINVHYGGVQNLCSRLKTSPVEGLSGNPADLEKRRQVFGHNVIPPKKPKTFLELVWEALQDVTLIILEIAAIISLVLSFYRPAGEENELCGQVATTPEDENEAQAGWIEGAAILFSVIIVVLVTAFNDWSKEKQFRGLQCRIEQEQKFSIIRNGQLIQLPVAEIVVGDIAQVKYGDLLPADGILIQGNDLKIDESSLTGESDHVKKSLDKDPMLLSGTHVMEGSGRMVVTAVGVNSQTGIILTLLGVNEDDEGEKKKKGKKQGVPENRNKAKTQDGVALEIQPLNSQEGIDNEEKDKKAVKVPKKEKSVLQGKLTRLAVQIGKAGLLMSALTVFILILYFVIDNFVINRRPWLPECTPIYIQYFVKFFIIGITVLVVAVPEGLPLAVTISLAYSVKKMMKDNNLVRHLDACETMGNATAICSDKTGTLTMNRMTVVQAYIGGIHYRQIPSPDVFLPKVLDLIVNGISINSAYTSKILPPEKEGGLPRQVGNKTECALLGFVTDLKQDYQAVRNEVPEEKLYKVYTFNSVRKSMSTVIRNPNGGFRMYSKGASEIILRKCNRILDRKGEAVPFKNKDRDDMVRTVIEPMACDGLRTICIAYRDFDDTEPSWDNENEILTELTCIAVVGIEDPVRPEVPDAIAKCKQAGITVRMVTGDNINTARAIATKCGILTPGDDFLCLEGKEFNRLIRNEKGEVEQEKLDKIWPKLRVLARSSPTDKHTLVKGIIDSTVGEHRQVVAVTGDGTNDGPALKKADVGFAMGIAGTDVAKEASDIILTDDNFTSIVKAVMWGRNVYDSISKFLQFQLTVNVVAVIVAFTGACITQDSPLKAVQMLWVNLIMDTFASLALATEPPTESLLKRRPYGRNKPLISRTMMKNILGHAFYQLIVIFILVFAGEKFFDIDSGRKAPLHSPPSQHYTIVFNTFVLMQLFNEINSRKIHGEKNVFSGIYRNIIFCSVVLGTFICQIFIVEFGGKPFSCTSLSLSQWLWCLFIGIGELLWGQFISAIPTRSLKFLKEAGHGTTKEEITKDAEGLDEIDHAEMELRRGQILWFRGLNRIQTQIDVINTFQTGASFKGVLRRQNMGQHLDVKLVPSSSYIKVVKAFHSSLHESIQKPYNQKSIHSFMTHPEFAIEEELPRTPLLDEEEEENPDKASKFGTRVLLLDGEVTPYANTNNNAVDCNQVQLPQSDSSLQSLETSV

decrease in RNLS dependent ERK phosphorylation in MiaPaCa2 cells after PMCA4b siRNA, western blot: 70%
Binder: CIRFVSIDNKKRNIESSEIG [RNLS peptide RP-220]

Reference: patent US20210024652A1
